{"source": "patent US20180080926A1", "key": {"mitochondrial mitofusins [1]": {"target": "mitochondrial mitofusins", "experiment": "cell-based or functional assay"}, "mitochondrial mitofusins [2]": {"target": "mitochondrial mitofusins", "experiment": "cell-based or functional assay", "remark": "listed apart in the source"}}, "note": "Like-named read-outs stand apart in the source and are kept apart here.", "data": [{"molecule": "TAT-398-418Gly (peptide)", "values": [{"measurement": "EC50 of mitochondrial shortening (suppressed fusion), mitochondrial aspect ratio in MEFs", "setting": "mitochondrial mitofusins [1]", "result": 250, "unit": "nM"}]}, {"molecule": "TAT-367-384Gly (peptide)", "values": [{"measurement": "EC50 of mitochondrial elongation (enhanced fusion), mitochondrial aspect ratio in MEFs", "setting": "mitochondrial mitofusins [1]", "result": 280, "unit": "nM"}]}, {"molecule": "GIMDSLHMAARGGYGRKKRRQRRR", "note": "[GoFuse-C fusion construct]", "values": [{"measurement": "EC50 of mitochondrial elongation (enhanced fusion), mitochondrial aspect ratio in MEFs", "setting": "mitochondrial mitofusins [2]", "result": 389, "unit": "nM"}]}, {"molecule": "GELLAQDYKLRGGYGRKKRRQRRR", "note": "[TetherX-C fusion construct]", "values": [{"measurement": "EC50 of mitochondrial shortening (suppressed fusion), mitochondrial aspect ratio in MEFs", "setting": "mitochondrial mitofusins [2]", "result": 171, "unit": "nM"}]}]}
